From PMC6445466, “Structural determination of the complement inhibitory domain of Borrelia burgdorferi BBK32 provides insight into classical pathway complement evasion by Lyme disease spirochetes” (PLoS Pathogens, 2019)

T1: human C1r, full-length enzyme (human, UniProt P00736 18-705)
T1 sequence: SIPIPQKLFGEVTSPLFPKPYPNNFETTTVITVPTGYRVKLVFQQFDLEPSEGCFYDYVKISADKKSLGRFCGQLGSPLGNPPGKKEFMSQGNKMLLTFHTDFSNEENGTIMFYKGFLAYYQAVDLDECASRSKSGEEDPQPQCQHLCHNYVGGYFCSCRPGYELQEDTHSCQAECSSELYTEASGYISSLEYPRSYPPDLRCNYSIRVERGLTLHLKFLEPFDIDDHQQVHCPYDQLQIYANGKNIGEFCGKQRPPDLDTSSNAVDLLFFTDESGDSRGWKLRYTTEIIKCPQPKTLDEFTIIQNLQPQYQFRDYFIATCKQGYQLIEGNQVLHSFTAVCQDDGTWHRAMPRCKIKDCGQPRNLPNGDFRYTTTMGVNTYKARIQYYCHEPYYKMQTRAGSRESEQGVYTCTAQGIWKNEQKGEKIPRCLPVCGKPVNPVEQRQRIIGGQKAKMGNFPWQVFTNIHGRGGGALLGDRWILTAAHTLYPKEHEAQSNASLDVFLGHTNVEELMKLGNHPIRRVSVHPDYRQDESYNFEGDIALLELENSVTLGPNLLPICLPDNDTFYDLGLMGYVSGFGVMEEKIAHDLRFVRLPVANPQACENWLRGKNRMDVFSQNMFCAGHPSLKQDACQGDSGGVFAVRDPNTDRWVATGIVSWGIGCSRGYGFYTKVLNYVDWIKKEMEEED

T2: C1r_(CCP1-CCP2-SP-auto) (autolytic fragment of human C1r, Leu-300 to Asp-705) (human, UniProt P00736 300-705)
T2 construct: complement C1r, human, residues Leu-300 to Asp-705 by mass spectrometry: last six residues of CUB2 and all of CCP1-CCP2-SP; Runs as one 55 kDa band on non-reducing SDS-PAGE; also called 55 kDa band; autolytic C1r fragment; source: autolytic digestion of bought purified C1r (Complement Tech) overnight at 37 °C; used in the digestion mix (SEC) and purified (SPR)
T2 sequence: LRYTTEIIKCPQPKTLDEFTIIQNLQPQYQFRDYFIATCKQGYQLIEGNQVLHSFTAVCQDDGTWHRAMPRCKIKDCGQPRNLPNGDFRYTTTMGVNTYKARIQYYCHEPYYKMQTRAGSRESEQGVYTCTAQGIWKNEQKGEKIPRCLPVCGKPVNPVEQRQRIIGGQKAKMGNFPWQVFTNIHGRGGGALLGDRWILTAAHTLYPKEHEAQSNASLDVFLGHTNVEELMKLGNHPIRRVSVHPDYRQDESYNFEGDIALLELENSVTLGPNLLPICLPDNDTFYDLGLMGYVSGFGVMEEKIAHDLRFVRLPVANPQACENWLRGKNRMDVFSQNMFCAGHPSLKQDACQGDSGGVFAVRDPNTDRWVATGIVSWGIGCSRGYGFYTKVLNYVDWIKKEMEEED

T3: His-C1r-CCP2-SP (residues 376-705) (human, UniProt P00736 376-705)
T3 construct: complement C1r, human, CCP2-SP domains, residues 376-705 as defined by UniProt P00736
T3 sequence: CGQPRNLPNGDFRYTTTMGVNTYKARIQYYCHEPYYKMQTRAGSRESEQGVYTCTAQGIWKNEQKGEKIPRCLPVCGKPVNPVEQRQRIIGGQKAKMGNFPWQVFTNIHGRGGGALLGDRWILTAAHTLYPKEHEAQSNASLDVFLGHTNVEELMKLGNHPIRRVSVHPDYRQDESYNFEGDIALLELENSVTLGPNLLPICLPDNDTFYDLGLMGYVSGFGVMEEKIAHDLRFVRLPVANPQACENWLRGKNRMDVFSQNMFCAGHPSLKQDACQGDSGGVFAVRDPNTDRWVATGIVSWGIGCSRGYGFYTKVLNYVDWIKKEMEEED

B1: BBK32-C (residues 206-354, B. burgdorferi strain B31) (domain or fragment)
chain: SNRYQSYLEGVKYNVDSAIQTITKIYNTYTLFSTKLTQMYSTRLDNFAKAKAKEEAAKFTKEDLEKNFKTLLNYIQVSVKTAANFVYINDTHAKRKLENIEAEIKTLIAKIKEQSNLYEAYKAIVTSILLMRDSLKEVQGIIDKNGVWY
B2: BGD19-C (residues 206-354, B. garinii strain IP90) (domain or fragment)
chain: SNRYQSYLEGVKYNVDSAIKTITKIYDTYTLFLTKLTQMYSTRLDNLAKAKAKEEAAKFTKEDLEKNFKTLLNYIQVSVKTATNFVYINDTHAKRKLENIETKIKTLIAKIKEKSNLYQAYKAIVRPILLMRDSLKEVQGAIDKNGIWY
B3: BBK32_((206-348)) (residues 206-348, B. burgdorferi strain B31) (domain or fragment)
chain: SNRYQSYLEGVKYNVDSAIQTITKIYNTYTLFSTKLTQMYSTRLDNFAKAKAKEEAAKFTKEDLEKNFKTLLNYIQVSVKTAANFVYINDTHAKRKLENIEAEIKTLIAKIKEQSNLYEAYKAIVTSILLMRDSLKEVQGIID
notes: BBK32 of Borrelia burgdorferi strain B31, residues 206-348 (lacks six C-terminal residues relative to BBK32-C); The deposited model holds residues 209-348; also called BBK32-C_((206-348)); crystallization construct

How the values were obtained:
[1] = biological target: T1, human C1r, full-length enzyme; assay: cell-based or functional assay
[2] = biological target: T2, C1r_(CCP1-CCP2-SP-auto) (autolytic …); assay: SPR; Biacore T200, 25 °C, BBK32(206-348) immobilised; C1r fragments as analytes, single-cycle as for C1r, 0.8 to 500 nM; 1:1 Langmuir fit; details: both partners purified
[3] = biological target: T3, His-C1r-CCP2-SP (residues 376-705); assay: as above; details: both partners purified

| Binder | IC50 of C3b deposition, classical pathway-specific ELISA with normal human serum [1] | IC50 of MAC deposition, classical pathway-specific ELISA with normal human serum [1] | IC50 of classical pathway hemolysis of sensitized sheep red blood cells by human serum [1] | IC50 of classical pathway hemolysis of sensitized sheep red blood cells by human serum; no saturable inhibition up to 1 uM [1] | Kd [2] | Kd [3] |
| --- | --- | --- | --- | --- | --- | --- |
| B1 | 0.014 µM | 0.013 µM | 0.17 µM |  |  |  |
| B2 | 0.032 µM | 0.035 µM |  | ~7.6 µM |  |  |
| B3 |  |  |  |  | 0.0015 µM | 0.0039 µM |
